According to the DeepSol protein solubility set:

Test: soluble on expression in E. coli; label from the status in PepcDB or PDB records

Soluble on expression in E. coli, not soluble:
MGSDKIHHHHHHMRNAHDILDNIVYDFANATGLGSVAVDLNGKEISPWYNFTSFCQQVRQIAAYHPYCQQCDRCGGFESTKAKQIQCYRCHAGLVDFSIPIFINGNLTGFVSCGQARVAENLPLPKIVENDKNLPTESKLIELYHEVPELSLMKIKSAAQLLNLIIENYLSKEYNLRIVKNVSPVKNQKLETLGRHQATMEMILNHINQNFSDNLNLEQMASKANLSMFYFSRTFKELTGTGFTAYLINKRMTEAHCLLEQTNWSIEKIARSVGYNDVHYFSRLFKKTFNRSPSEFRNHSSGFSM
MGSDKIHHHHHHMRNLDITTLRSFVAVADTGGVTRAASFLHLTQSAVSMQLKRLEEMLGVELLDRSGRNIGLTSAGEQLLGFARKMLSLNDEIITRLTDQAFEGEVTLGVPHDVVHPVIPMVMQRFNVQFPRVKVNLCTSNTRDLKMDFAQGRFDLIVTTETTASEGGEVIHQMPLRWIGALGGQTWRQRPLRIGFCRNCIFRGLATAALDDAGIPWEMAVDSESDRTVEATVSADLAVGVLLEGTQPAHQQVIDHGGSLPQLPVQHINLYGAERSRAQYVDHLASLIRQGFAGLSQPGLRAVGTEMVSAPVQLGVV
MGSDKIHHHHHHMRNPDIGIDDLTALFIADTPLIDVRAPVEFTQGSLPGAVNLPILNDEERALVGTTYKQQGSEAAIKLGYEMVSGSVKQNRLQQWLDFIHQHPRAILYCFRGGKRSQITQQWLRDTGIDSPLITGGYKRARQFLISTIDRFSEHRKLLVITGPTGSGKTRLIHDISNSHPVLDIEALARHRGSAFGGMSVPQPSQIDFENHLAVNLLKLEQNNLSEPVIVEDESRHTGKVYLPDSFFHHLRNSEIIWVDEPLATRVDNIFEDYILTTPIGQAQRIRQAIPPLASTVETREILRQQARQLFDKYAGALQAISKKLGGDRFQEVSEDLENARSDFENKNEIQSNKIWIEKLVRYYYDPLYLGSLQRRRVNPCFKGSGQAVMDYLQARK
MGSDKIHHHHHHMRNPEVIVIGSGIGGLCCGGLLAKAGKRVLILEAHSKPGGAAHGFEKNGYKFESGPSLWSGIGSWPTTNPLGQVLKALNQKVDLIKYQDWNVQIPEGDYTIGVGDRRFLDQINSISGKDAMKEWENFIQVIKPIGAAANAIPLLALNQNKETVLQLLKRSKTLLTHLKSFKYLGGAFGNLVDDHLKDPFLRNWVELLCFLISGLSKDETNAAAMATLFDDWFNPDAYLEYPKGGSESIVKALLDGIYSFGGDLQLNSKVSQIIIKRNKAIGIELKNGERIFADHIVSNADIWNTIELIPKEISQKWRGKRSKTPKCKSFLHLHLGFNAEGLKDIPLHSIWVNDWSKGITAERNVVVLSIPSALDPTMSPPNKHILHGYTPANEPWERWEGLKIGSKEYERTKEERCSVFWEPIKKLVPDIEERIEVKMLGTPLTHQRFLNTKNGSYGPALSAAEGLFPGNKTPIKNLLLCGSSTFPGIGIPPVAASGAMAANTILGSKFQRDLIEELGL
MGSDKIHHHHHHMRNYCRWCENDPLLIAYHDKEWGQREGNDQRLFEAMCLELFQSGLSWKTVLQKRDSIRKAFHHFELEKVATMNEQDVERLLKDKGIIRHRKKIEATIQNSRNVVRLQREFGSFREWIESLPNDVEAKAAMISEMFTYMGPITAKSFLEATGFIPVEHDKQCHLFEGKSLQIKPIGTADRGEVQQFFHQHWGSPEMVLSTGVFHCERLPGFLYRNKLGEIIGLITYVTHGKRSIEIISLDSVEEGKGIGTSLLQAVEAEAIEQQVRQIEVITTNDNLHALGFYQKRGFQLKELVVNGVEKARQLKPSIPRKSADGIPIRDELKLVKTMR
MGSDKIHHHHHHMRPTAIGSVCTPFVCWSCVARHGNTHVCWSCSVASVPCVTRAPVSVPGGLAAVCRTWLRRKGDLMNQGRPGVHVRVFDARVGDRVVVEPKGVGDRFMSVFVGWDAGRYLIVKMPSNLALKDHLYPDKPVVLRYLHCTGEVHGCETTIETSVAVPHRLLFLRHPESVEAVSLRKDAWVNCSVPALLRHEAGNMAGYLLDVSRGGCKVAYFEEEGLPTLAAGTEVQCSFRLPGGEQPVEVGAVVRNVAGEGGRIVCGLEFRDAPEPVVAAIGAYVDAAAFLVGTSCADRVVR
MGSDKIHHHHHHMRRLFTSESVTEGHPDKIADQISDAILDAMLEQDPRSRVAVETLVTTGLVIIAGEVTTRAYVEIPDIARKTILEIGYTRAKYGFDGETCGVLTSIHSQSPDIALGVDKALEVKTGEEVADEFEALGAGDQGIMFGYATNETPEYMPLPITLAHKLAMRLAEVRKNGTLPFLRPDGKTQVTIEYEDDKPVRVDTVLISTQHDPDISQADLREAIIEHVINPVIPEQYRDDKMKILVNPTGRFVLGGPMADTGLTGRKIIVDTYGGWVPHGGGAFSGKDPTKVDRSAHYMARYVAKNVVAAGLADKFLIQLSYAIGVAKPVSIMIDTYGTAKVDEDKLLKVITELFDFRPGAIIKKLNLLRPIYRKTAAYGHFGRNEEEFTWEKLDMVDELKRAFNM
MGSDKIHHHHHHMRRLPPLNALQIFETVARHRSFTRAADHLCLTQGAVSRQIIALEDYYKFPLFKRHAKGLTLTAEGELLLPAVKESFARIEEISLRLTRQRTDLALKVPTCVMRWMLPKIMRFQAEYPELHVQITTTWQHDVDFQLEPFDAAIIYGSSPGADVQAVPLFEERLTPVCAPDLLKDKPLAELADLARHTLLHPTRDHRDWKMWLARVTEMGAANAPVIDAEHGPSFDTLDMATNAALQGFGVAISDLALIDEDVAAKRLVRPFDTVLKTGWRYYFVYPDSVAHQQKLNLFRDWIAAHWEE
MGSDKIHHHHHHMRRVISIFRKLSAVYCHTGNFAEGIRVCKYALGRFTEMEDKYKCIFTFNMSLYYNYLGEYGKALNAITGFESVIKATYEDRYYKVLLLKADCYYGAERYAESLSIYNKLISITLKDDFNNLCVYYNNMTQVYLRMGKRDMAVNCINTVINNLHNISDDFEALPQIYAELGKSYLMMADNDKSIKYLTIALKLSKDFKYYSVTKDILNELSKIKGNSNKLKLKDEFIILTENMGRSYDSLNHSLVFNIIQYYTRLGDVASINELCEYCKERKVG
MGSDKIHHHHHHMRSDVIKKGLERVPHRSLLKALGITDDEMRRPFIGIVSSWNEIIPGHVHLDKVVEAVKAGVRMAGGVPFVFPTIGICDGIAMDHRGMKFSLPSRELIADSIEIVASGFPFDGLVFVPNCDKITPGMMMAMGRLNIPSVLISGGPMLAGRYNGRDIDLITVFEAVGGYKVGKVDEETLKAIEDLACPGAGSCAGLFTANTMNSLAEALGIAPRGNGTVPAVHAKRLRMAKEAGMLVVELVKRDVKPRDIVTLDSFMNAVMVDLATGGSTNTVLHLKAIAESFGIDFDIKLFDELSRKIPHICNISPVGPYHIQDLDDAGGIYAVMKRLQENGLLKEDVMTIYLRKIGDLVREAKILNEDVIRPFDNPYHKEGGLGILFGNLAPEGAVAKLSGVPEKMMHHVGPAVVFEDGEEATKAILSGKIKKGDVVVIRYEGPKGGPGMREMLSPTSAIVGMGLAEDVALITDGRFSGGSHGAVIGHVSPEAAEGGPIGIVKDGDLIEIDFEKRTLNLLISDEEFERRMKEFTPLVKEVDSDYLRRYAFFVQSASKGAIFRKP
MGSDKIHHHHHHMRVCAEHHVINTATGPMGTRVYRPAGPGSYPAILFYSEIFQETAPISRMATVLAGHGFVVLVPEIFHELNPAGTVLGYDDMGKDKGNSDKATKPLESHDSDTAAMVDFVRRQPWCQGKIGAMGVCIGGHLAYRAAVNPDVAAAFCLYATDIHSGTIPSQPGNDSLSRTRDIRGELYMVFGKQDPHVPGEGRRLIQHNLEQHGVNHSWLEVNAEHAFMRDGDARHDPALALVMYQSAIALFQRTL
MGSDKIHHHHHHMRVIELEDLDHIREAIVILKGLEVEGANKPGEKLGFKKGKNLMSIFTCKEMDRFIRDVQERKNFSLETNAYFFELHSKRFVSLRYLPKKSLLFVNDLTEERTLSEAKLDFVTAVSHELFTPLSASKANVFLLKDIENDPEKLEILGKVERSLDRMETIIRQLKVLTMIQLRLYELKMEHIPVEEVVHMVLEELREKIESKKIKVNVFVDVETIETDRFVFHTILKNLVSNAVKYSYPDSVVEISITGERLSVKDQGIGIKEEEKSRIFERFYRGSEALKMAPGSGLGLSIVKHLCDTIGYRLEVNSQWLVGSEFIVHFK
MGSDKIHHHHHHMRVKHFELLTDEGKTFTHVDLYGKYTILFFFPKAGTSGCTREAVEFSRENFEKAQVVGISRDSVEALKRFKEKNDLKVTLLSDPEGILHEFFNVLENGKTVRSTFLIDRWGFVRKEWRRVKVEGHVQEVKEALDRLIEEDLSLNKHIEWRRARRALKKDRVPREELELLIKAAHLAPSCMNNQPWRFVVVDEEELLKKIHEALPGGNYWMKNAPALIAVHSKKDFDCALPDNRDYFLFDTGLAVGNLLVQATQMGLVAHPVAGYDPVKVKEILKIPEDHVLITLIAVGYLGDESELSEKHRELERSERVRKELSEIVRWNL
MGSDKIHHHHHHMRVLAAMSGGVDSAVAAARAVEAGHDVVGVHLALSRMPGTLRTGSRGCCTIEDSRDAWRACDVLGIPYYVWDFSERFKEDVVQDFIDEYAAGRTPNPCMRCNERIKFAALLEKAIALGFDAVCTGHYAKVITDADGNPELHRAADWAKDQSYVLGVLTHEQLKHSMFPLADTPSKAEVRAEAERRGLSVANKPDSHDICFIPDGDTAGWLAEKIEMTTGDIVDEAGTKVGEHPGANAFTVGQRRGLKLGTPAADGKPRFVLEIRPKENKVVVGPEALLAIDEIRGIKVSWAGLPIAEVATGDEFDCHAQVRAHGDPVPATARMERLTDDDGAERTNLVVTLATPLRGVAPGQTVVLYQGSRVLGQATIDTARSLQRAAL
MGSDKIHHHHHHMRVSSDDALFYRIEAFFRGRAYGPHRHDTYAVGITTAGIQSIRYRGELVHSSPGDTVVIHPDEIHDGRAGTVAGYCYRIVHLQPEALQQILGQTSLPFIKEGVSQNAQLYQAIWAMLREFDRPLEPLERTDLLFDLAMALQAAAGTAKAKHTGNIKAALIARDCIRSAPSQRIELDVLARESGRDRWSLSRDFRQFFGTSPSRYMTMRRLDIARRLMSNGTPLAECAVAVGFADQSHMSRQFVEAFGLTPTRWLTMLR
MGSDKIHHHHHHMRVSVRNLTKIFRVGSIFSLKKLVAIDNVSFEIGSGEIFSLAGESGCGKTTTAKILLGLEEPTNGEVLYDGIKLKDFVENEMHFLKKVQTVQQNPFSTFNPFRKVEDYLFKTVLRFKMANTKDEALRLIEEKLSVVGLNFDEIKGRYPSEFSGGQLQRISIARALLTNPSFLVADEPVSMIDASLRISIVNLFRDLKERFGISILYITHDLSTAYYVADKLAIMFRGSIVEMGRAQDILDTPFHPYTKLLKSSIPVPDPEYEWDENINLSSTEREEFFAKGCKFASRCPEVMSICRESVPPDFDVNGRVVKCWLYK
MGSDKIHHHHHHMRYAIYFSPAKDHPLTEAASRWLGRNAFSGTLHDDHDDYADLTEEPRRYGFHATLKAPFELAEKYSEAELLAAVEDFAANQSAFEIPRVVVGALGPFFALVPDRVYQPLQDFAAEVVDHFDRFRAPLSETDIARRRPQMLTESQRQNLSLWGYPHVMDDFRFHMTLTGRIDEEEQPAMQEILSTRFAEFVDQPLAISGLALFIEETRGAPFTVHRWHPLGQQPKKDANP
